According to publication PMC4837377 (Scientific Reports, 2016):

B1: PA-PB1(1-686) heterodimer (construct 1) (complex)
chain 1: […]
chain 2: MDVNPTLLFLKVPAQNAISTTFPYTGDPPYSHGTGTGYTMDTVNRTHQYSEKGKWTTNTETGAAQLNPIDGPLPEDNEPSGYAQTDCVLEAMAFLEESHPGIFENSCLETMEVVQQTRVDRLTQGRQTYDWTLNRNQPAATALANTIEVFRSNGLIANESGRLIDFLKDVIESMDKEEMEITTHFQRKRRVRDNMTKKMVTQRTIGKKKQRVNKRSYLIRALTLNTMTKDAERGKLKRRAIATPGMQIRGFVYFVETLARSICEKLEQSGLPVGGNEKKAKLANVVRKMMTNSQDTELSFTITGDNTKWNENQNPRMFLAMITYITKNQPEWFRNILSIAPIMFSNKMARLGKGYMFESKRMKLRTQIPAEMLASIDLKYFNESTRKKIEKIRPLLIDGTASLSPGMMMGMFNMLSTVLGVSILNLGQKKYTKTTYWWDGLQSSDDFALIVNAPNHEGIQAGVDRFYRTCKLVGINMSKKKSYINRTGTFEFTSFFYRYGFVANFSMELPSFGVSGINESADMSIGVTVIKNNMINNDLGPATAQMALQLFIKDYRYTYRCHRGDTQIQTRRSFELKKLWEQTRSKAGLLVSDGGPNLYNIRNLHIPEVCLKWELMDEDYQGRLCNPLNPFVSHKEIESVNNAVVMPAHGPAKSMEYDAVATTHSWIPKRNRSILNTSQRGILEDE
B2: RanBP5 (residues 1-1115) co-expressed in the PA-PB1(1-686)-RanBP5 polyprotein (construct 21) (natural protein)
chain: MPEDQVGKLEATENTISAMAAAAAEQQQFYLLLGNLLSPDNVVRKQAEETYENIPGQSKITFLLQAIRNTTAAEEARQMAAVLLRRLLSSAFDEVYPALPSDVQTAIKSELLMIIQMETQSSMRKKVCDIAAELARNLIDEDGNNQWPEGLKFLFDSVSSQNVGLREAALHIFWNFPGIFGNQQQHYLDVIKRMLVQCMQDQEHPSIRTLSARATAAFILANEHNVALFKHFADLLPGFLQAVNDSCYQNDDSVLKSLVEIADTVPKYLRPHLEATLQLSLKLCGDTSLNNMQRQLALEVIVTLSETAAAMLRKHTNIVAQTIPQMLAMMVDLEEDEDWANADELEDDDFDSNAVAGESALDRMACGLGGKLVLPMIKEHIMQMLQNPDWKYRHAGLMALSAIGEGCHQQMEGILNEIVNFVLLFLQDPHPRVRYAACNAVGQMATDFAPGFQKKFHEKVIAALLQTMEDQGNQRVQAHAAAALINFTEDCPKSLLIPYLDNLVKHLHSIMVLKLQELIQKGTKLVLEQVVTSIASVADTAEEKFVPYYDLFMPSLKHIVENAVQKELRLLRGKTIECISLIGLAVGKEKFMQDASDVMQLLLKTQTDFNDMEDDDPQISYMISAWARMCKILGKEFQQYLPVVMGPLMKTASIKPEVALLDTQDMENMSDDDGWEFVNLGDQQSFGIKTAGLEEKSTACQMLVCYAKELKEGFVEYTEQVVKLMVPLLKFYFHDGVRVAAAESMPLLLECARVRGPEYLTQMWHFMCDALIKAIGTEPDSDVLSEIMHSFAKCIEVMGDGCLNNEHFEELGGILKAKLEEHFKNQELRQVKRQDEDYDEQVEESLQDEDDNDVYILTKVSDILHSIFSSYKEKVLPWFEQLLPLIVNLICPHRPWPDRQWGLCIFDDVIEHCSPASFKYAEYFLRPMLQYVCDNSPEVRQAAAYGLGVMAQYGGDNYRPFCTEALPLLVRVIQSADSKTKENVNATENCISAVGKIMKFKPDCVNVEEVLPHWLSWLPLHEDKEEAVQTFNYLCDLIESNHPIVLGPNNTNLPKIFSIIAEGEMHEAIKHEDPCAKRLANVVRQVQTSGGLWTECIAQLSPEQQAAIQELLNSA

What was measured:
[1] = target: B2; assay: co-purification (nickel resin, heparin, SEC); details: partners not purified
[2] = target: B1; assay: SEC-SAXS; details: both partners purified

Binder	binding result [1]	stoichiometry N [2]
B1	binds	
B2		1
